Source: article PMC12796354
“And” between values parts separate entries of the source, which are not always exact repeats. Identical values can stand only once.

Tests used:
[1] = target: baseplate center piece protein (gp114) of phage 7-7-1 (Agrobacterium phage 7-7-1); experiment: cryo-EM structure; single particle analysis of purified virions; baseplate region, local refinements: baseplate core complex C6 3.4 Å, tail fibers C1 3.5 Å
[2] = target: baseplate central hub protein (gp113) of phage 7-7-1 (Agrobacterium phage 7-7-1); experiment: as above
[3] = target: baseplate wedge 1 (gp111) of phage 7-7-1 (Agrobacterium phage 7-7-1); experiment: as above
[4] = target: baseplate wedge 2 (gp110) of phage 7-7-1 (Agrobacterium phage 7-7-1); experiment: as above
[5] = target: central spike protein (gp112) of phage 7-7-1 (Agrobacterium phage 7-7-1); experiment: as above
[6] = target: decoration protein (gp002) of phage 7-7-1 (Agrobacterium phage 7-7-1); experiment: cryo-EM structure; single particle analysis of purified virions in TM buffer (10 mM MgSO4, 20 mM Tris/HCl, pH 7.5); DNA-filled capsid, icosahedral symmetry, 3.4 Å
[7] = target: garland protein (gp014) of phage 7-7-1 (Agrobacterium phage 7-7-1); experiment: cryo-EM structure; single particle analysis of purified virions; baseplate region, local refinements: baseplate core complex C6 3.4 Å, tail fibers C1 3.5 Å
[8] = target: long tail fiber (gp015) of phage 7-7-1 (Agrobacterium phage 7-7-1); experiment: as above
[9] = target: major capsid protein (gp003) of phage 7-7-1 (Agrobacterium phage 7-7-1); experiment: cryo-EM structure; single particle analysis of purified virions in TM buffer (10 mM MgSO4, 20 mM Tris/HCl, pH 7.5); DNA-filled capsid, icosahedral symmetry, 3.4 Å
[10] = target: neck 1 protein (gp119) of phage 7-7-1 (Agrobacterium phage 7-7-1); experiment: cryo-EM structure; single particle analysis of purified virions; neck region, local refinements: portal C12 3.2 Å, collar C15 3.3 Å, neck 1 C3 3.5 Å, neck 2 + tail terminator + tail sheath + tail tube C6 3.6 Å
[11] = target: neck 2 protein (gp121) of phage 7-7-1 (Agrobacterium phage 7-7-1); experiment: as above
[12] = target: portal protein (gp005) of phage 7-7-1 (Agrobacterium phage 7-7-1); experiment: as above
[13] = target: short tail fiber (gp008) of phage 7-7-1 (Agrobacterium phage 7-7-1); experiment: cryo-EM structure; single particle analysis of purified virions; baseplate region, local refinements: baseplate core complex C6 3.4 Å, tail fibers C1 3.5 Å
[14] = target: tail terminator protein (gp124) of phage 7-7-1 (Agrobacterium phage 7-7-1); experiment: cryo-EM structure; single particle analysis of purified virions; neck region, local refinements: portal C12 3.2 Å, collar C15 3.3 Å, neck 1 C3 3.5 Å, neck 2 + tail terminator + tail sheath + tail tube C6 3.6 Å
[15] = target: tail tube protein (gp127) of phage 7-7-1 (Agrobacterium phage 7-7-1); experiment: cryo-EM structure; single particle analysis of purified virions; extended tail, C6 helical refinement, twist 27.35°, rise 35.25 Å, 3.1 Å
[16] = target: tail tube protein (gp127) of phage 7-7-1 (Agrobacterium phage 7-7-1); experiment: cryo-EM structure; single particle analysis of purified virions; neck region, local refinements: portal C12 3.2 Å, collar C15 3.3 Å, neck 1 C3 3.5 Å, neck 2 + tail terminator + tail sheath + tail tube C6 3.6 Å

## baseplate center piece protein (gp114) of phage 7-7-1 (natural protein)
[1]
  stoichiometry N: 6

## baseplate central hub protein (gp113) of phage 7-7-1 (natural protein)
[2]
  stoichiometry N: 3

## baseplate wedge 1 (gp111) of phage 7-7-1 (natural protein)
[3]
  stoichiometry N: 6

## baseplate wedge 2 (gp110) of phage 7-7-1 (natural protein)
[4]
  stoichiometry N: 2

## central spike protein (gp112) of phage 7-7-1 (natural protein)
[5]
  stoichiometry N: 3

## decoration protein (gp002) of phage 7-7-1 (natural protein)
[6]
  stoichiometry N: 2

## garland protein (gp014) of phage 7-7-1 (natural protein)
[7]
  stoichiometry N: 2

## long tail fiber (gp015) of phage 7-7-1 (natural protein)
[8]
  stoichiometry N: 3

## major capsid protein (gp003) of phage 7-7-1 (natural protein)
[9]
  stoichiometry N: 6 and 5

## neck 1 protein (gp119) of phage 7-7-1 (natural protein)
[10]
  stoichiometry N: 12

## neck 2 protein (gp121) of phage 7-7-1 (natural protein)
[11]
  stoichiometry N: 6

## portal protein (gp005) of phage 7-7-1 (natural protein)
[12]
  stoichiometry N: 12

## short tail fiber (gp008) of phage 7-7-1 (natural protein)
[13]
  stoichiometry N: 3

## tail terminator protein (gp124) of phage 7-7-1 (natural protein)
[14]
  stoichiometry N: 6

## tail tube protein (gp127) of phage 7-7-1 (natural protein)
[15]
  stoichiometry N: 6
[16]
  stoichiometry N: 6
